Blank lines part the entries; values can stand above or below the binder they belong to. Numbered stars: 1 amine (or outer) side, 2 acyl side, 3 side chain; on linkers, the order of the positions; unused ones are H or OH. Bridge positions count the residues as written; N and C are the ends. Side chains are listed from the residue outwards. Ends that are not written are not given here. * marks the point of attachment. C20 diacid = O=C(O)CCCCCCCCCCCCCCCCCCC(=O)*; γGlu = O=C(O)[C@H](CCC(=O)[*:2])N[*:1]
Tests used:
[1] = biological target: T1, human amylin receptor (calcitonin receptor co-expressed with receptor activity modifying protein, RAMP3) (human, UniProt P30988 25-474; O60896 24-148); test: cell-based or functional assay
T1 sequence (looked up) 1: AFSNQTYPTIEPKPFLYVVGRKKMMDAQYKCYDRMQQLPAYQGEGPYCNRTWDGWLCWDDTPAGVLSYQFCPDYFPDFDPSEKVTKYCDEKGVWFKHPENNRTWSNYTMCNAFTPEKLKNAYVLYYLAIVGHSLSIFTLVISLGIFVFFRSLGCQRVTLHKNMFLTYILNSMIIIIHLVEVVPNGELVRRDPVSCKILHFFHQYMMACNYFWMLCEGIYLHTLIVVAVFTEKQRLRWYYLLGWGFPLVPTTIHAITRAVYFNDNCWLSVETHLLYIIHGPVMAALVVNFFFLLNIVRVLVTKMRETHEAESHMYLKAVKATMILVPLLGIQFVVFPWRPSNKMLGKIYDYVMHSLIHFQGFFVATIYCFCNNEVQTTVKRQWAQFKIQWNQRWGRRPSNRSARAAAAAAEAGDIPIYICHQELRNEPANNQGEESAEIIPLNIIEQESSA
T1 sequence (looked up) 2: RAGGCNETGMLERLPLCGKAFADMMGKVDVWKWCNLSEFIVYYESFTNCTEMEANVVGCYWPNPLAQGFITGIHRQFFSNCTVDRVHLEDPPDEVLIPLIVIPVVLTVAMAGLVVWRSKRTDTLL

[2] = biological target: T2, human calcitonin receptor (human, UniProt P30988 25-474); test: cell-based or functional assay
T2 sequence (looked up): T1 sequence (looked up) 1

EC50 (cAMP production) [1]: 0.417 nM | Ratio (EC50 hCTR / EC50 hAMYR3) [1]: 2 | EC50 (cAMP production) [2]: 0.792 nM
B1: Peptide 118 (SEQ ID NO: 118) (peptide)
peptide: K([γGlu-γGlu-C20 diacid])CNIATCATQRLANFLVHSIANFGPILPPTNVGSRTY-NH2
modifications: disulfide 2-7; N-terminus assumed
SMILES: CC[C@H](C)[C@H](NC(=O)[C@H](CO)NC(=O)[C@H](Cc1c[nH]cn1)NC(=O)[C@@H](NC(=O)[C@H](CC(C)C)NC(=O)[C@H](Cc1ccccc1)NC(=O)[C@H](CC(N)=O)NC(=O)[C@H](C)NC(=O)[C@H](CC(C)C)NC(=O)[C@H](CCCNC(=N)N)NC(=O)[C@H](CCC(N)=O)NC(=O)[C@@H](NC(=O)[C@H](C)NC(=O)[C@@H]1CSSC[C@H](NC(=O)[C@@H](N)CCCCNC(=O)CC[C@H](NC(=O)CC[C@H](NC(=O)CCCCCCCCCCCCCCCCCCC(=O)O)C(=O)O)C(=O)O)C(=O)N[C@@H](CC(N)=O)C(=O)N[C@@H]([C@@H](C)CC)C(=O)N[C@@H](C)C(=O)N[C@@H]([C@@H](C)O)C(=O)N1)[C@@H](C)O)C(C)C)C(=O)N[C@@H](C)C(=O)N[C@@H](CC(N)=O)C(=O)N[C@@H](Cc1ccccc1)C(=O)NCC(=O)N1CCC[C@H]1C(=O)N[C@H](C(=O)N[C@@H](CC(C)C)C(=O)N1CCC[C@H]1C(=O)N1CCC[C@H]1C(=O)N[C@H](C(=O)N[C@@H](CC(N)=O)C(=O)N[C@H](C(=O)NCC(=O)N[C@@H](CO)C(=O)N[C@@H](CCCNC(=N)N)C(=O)N[C@H](C(=O)N[C@@H](Cc1ccc(O)cc1)C(N)=O)[C@@H](C)O)C(C)C)[C@@H](C)O)[C@@H](C)CC

EC50 (cAMP production) [1]: 1.46 nM | Ratio (EC50 hCTR / EC50 hAMYR3) [1]: 24 | EC50 (cAMP production) [2]: 34.7 nM
B2: Peptide 119 (SEQ ID NO: 119) (peptide)
peptide: K([γGlu-γGlu-C20 diacid])CNTATCATQRLANFLVHSPPNFPAILSPTNVGSNTY-NH2
modifications: disulfide 2-7; N-terminus assumed
SMILES: CC[C@H](C)[C@H](NC(=O)[C@H](C)NC(=O)[C@@H]1CCCN1C(=O)[C@H](Cc1ccccc1)NC(=O)[C@H](CC(N)=O)NC(=O)[C@@H]1CCCN1C(=O)[C@@H]1CCCN1C(=O)[C@H](CO)NC(=O)[C@H](Cc1c[nH]cn1)NC(=O)[C@@H](NC(=O)[C@H](CC(C)C)NC(=O)[C@H](Cc1ccccc1)NC(=O)[C@H](CC(N)=O)NC(=O)[C@H](C)NC(=O)[C@H](CC(C)C)NC(=O)[C@H](CCCNC(=N)N)NC(=O)[C@H](CCC(N)=O)NC(=O)[C@@H](NC(=O)[C@H](C)NC(=O)[C@@H]1CSSC[C@H](NC(=O)[C@@H](N)CCCCNC(=O)CC[C@H](NC(=O)CC[C@H](NC(=O)CCCCCCCCCCCCCCCCCCC(=O)O)C(=O)O)C(=O)O)C(=O)N[C@@H](CC(N)=O)C(=O)N[C@@H]([C@@H](C)O)C(=O)N[C@@H](C)C(=O)N[C@@H]([C@@H](C)O)C(=O)N1)[C@@H](C)O)C(C)C)C(=O)N[C@@H](CC(C)C)C(=O)N[C@@H](CO)C(=O)N1CCC[C@H]1C(=O)N[C@H](C(=O)N[C@@H](CC(N)=O)C(=O)N[C@H](C(=O)NCC(=O)N[C@@H](CO)C(=O)N[C@@H](CC(N)=O)C(=O)N[C@H](C(=O)N[C@@H](Cc1ccc(O)cc1)C(N)=O)[C@@H](C)O)C(C)C)[C@@H](C)O

Reference: patent US20220204580A1 (AstraZeneca / MedImmune, published 2022)
